Source: the DeepSol protein solubility set

Assay: soluble on expression in E. coli; label from the status in PepcDB or PDB records

| Sequence | soluble on expression in E. coli |
| --- | --- |
| MPNVVGVQFQKAGKLEYYAPNQLDVEVGDWVVVQSKRGIEIGHVKFPLREVDVEDVTLPLKNIIRKMNEDDQETYYRNERDANDALELCKKVVKDQQLDMRLVNCEYTLDKSKVIFNFTADDRIDFRKLVKVLAQNLKTRIELRQIGVRDEAKLLGGIGPCGRSLCCSTFLGDFEPVSIKMAKDQNLSLNPTKISGACGRLMCCLKYENDYYEEARTQLPDVGDMIQTPDGHGKVIGLNILDISMQVKIEGLEQPLEYKMEEIEVLNLEHHHHHH | not soluble |
| MGHHHHHHSHKPIKVEKTVTINKPADELYRYWHNFENLPTFMKHLKSVKVYNEKRSHWIANAPLGNSVEWDADILEDRENEFISWASAEGADVENSGFVRFQKAPGDVPGQAASRLRGTEVKVVLEYNLPGGALAAVVAKLFGEEP | not soluble |
| GFKCGIVGLPNVGKSTLFNALTKAGIEAANFPFCTIEPNTGVVPMPDPRLDQLAEIVKPQRTLPTTMEFVDIAGLVKGASKGEGLGNQFLTNIRETEAIGHVVRCFENDNIIHVSGKVNPADDIEVINTELALADLDTCERAIHRVQKKAKGGDKDAKAELAVLEKCLPQLENAGMLRALDLSAEEKAAIRYLSFLTLKPTMYIANVNEDGFENNPYLDQVREIAAKEGSVVVPVCAAVEADIAELDDEERDEFMQELGLEEPGLNRVIRAGYKLLNLQTYFTAGVKEVRAWTIPVGATAPQAAGKIHTDFEKGFIRAQTISFEDFITYKGEQGAKEAGKMRAEGKDYIVKDGDVMNFLFNV | not soluble |
| LRDFNYSIAGNLTWARNKVIDLLEPAGEKNNPRQRSTGHSMSQYFGYEALGLFQSDEEANNWPQPQFGKAKAGDIKYKDQNGDGIIDAEDEIAIGRSNYPELVYGLNLNAEWKGFDITFFFQGAALADFYYNGYLAFPYIEGRGGALLEHHIGNTWTPENPKAEFPRLYYGGNANNQLFSSFWMRNGSYLRLKNVEIGYDFKKLLLSKVSEIQGLRLYFSGSNLLTWSQIKYFDPELRSTDGSAYPQMKTFVFGANITF | not soluble |
| MSAKNVLKMANRNSANKRDILGDLLSLSSNKTVNLNEMAHGQGKRKMASIDGQKENPKRIKMSQHMTAKEVKIPLLRTPDEEARKIEKLRREARIKRSKEVHYDAAEQQQIMMNYEWTVQMEEQEKLRKKVEKKH | not soluble |
| QVTISITEDCPNNCIHCALPDTKNRAKLSPETVRDVIDQVLEMGTTFVIFDGGEPLTYPGLEELISYVDPEKAITGMFTSGVGLTEERARSLKAAGLYSLTVSFDSAYEEKHDYVRGRKGVFKSAVEAVKNGLAAGLLVNIYVVLSRDNVNELDELYNLAAGLGAHELSFYEIVPTGRWMDHASEIMTPKDMRK | not soluble |
| MSLNKIDMPVLNVKMVPVEKIKSNSYNPNHVAGPEMELLELSILKDGYTQPIVCYCDDKKDEYIIIDGFHRYLIGKSKLDLKELPVVVIDKPLEQRMSSTIRHNRARGKHEIDKMSELVLLLVNEGWDDHKIGKELGMEKEEVLRLKQVTGLKSAFLNHEFSESWDEFVKKNYPKQKDEEGGSHHHHHH | soluble |
| GPGSMHPRLSGQGVFPRYGGGWMHQFGHVYALQQELLNAEANNWFRAMELWHTARHEGVAMNVSHYTNILRQCVPPTAWEASLMVLKQMRRENIRPDVVGVGCALAACADANRSEEVEKVFSCFSGKLKLDSICYLALIKAKMSRGGYAEALAVGREQDADGVPFLPHTYTHLLEAAEVADDGEMALELARRMSSEQWPVSDRGREALKKLSTRHHWEEVAEYKQFVAVEDHKLSLPPTLPRG | not soluble |
| MTTNYVLRKPWRWLTISKDMMINEQIRAREVRLVGANGDQLGIKSRNDALDLAANLNLDLVLVAPNAKPPVCRIMDYGKFRFEQQKKEKEQRKNQKVISMKEVRLSPTIDEHDFNTKLRNAIKFLEKGDKVKASIRFKGRAITHKEIGQRVLDRFSEACAEVSTIESKPKMEGRSMFLVLAPKNDK | not soluble |
| MGSDKIHHHHHHSNPTRSIPATDAVSSATAGKKMGLQTYSLGQELLQDMPNGLNRLAKAGYTDLEIFGYREDTGKFGDYNPKNTTFIASKDYKKMVDDAGLRISSSHLTPSLREYTKENMPKFDEFWKKATDIHAELGVSCMVQPSLPRIENEDDAKVVSEIFNRAGEITKKAGILWGYHNHSNEFKRVLKAGEKPEQNPNPWAPPKGTYIEELFLKNTDPDKVMFELDVYWAVMGQQDPVEWMENYPNRFKLLHIKDRWIIGDSGMMNFPNIFKKAYEIGILGYYVELEGDKKGRTQFEGVEKSAAYLQAAPFVK | not soluble |
| TRAMEEALFQHFMHQKLGIAYAIHKPFPFFEGLLDNSIITKRMYMESLEACRNLIPVSRVVHNILTQLERTFNLSLLVTLFSQINLREYPNLVTIYRSFKRVGASY | not soluble |
| MGSDAKNLMSDGNVQIVKTGEVIGATQLTEGELIVEAGGRAENTVVTGAGWLKVATGGIAKCTQYGNNGTLSVSDGAIATDIVQSEGGAISLSTLATVNGRHPEGEFSVDKGYACGLLLENGGNLRVLEGHRAEKIILDQEGGLLVNGTTSAVVVDEGGELLVYPGGEASNCEINQGGVFMLAGKASDTLLAGGTMNNLGGEDSDTIVENGSIYRLGTDGLQLYSSGKTQNLSVNVGGRAEVHAGTLENAVIQGGTVILLSPTSADENFVVEEDRAPVELTGSVALLDGASMIIGYGAELQQSTITVQQGGVLILDGSTVKGDSVTFIVGNINLNGGKLWLITDAATHVQLKVKRLRGEGAICLQTSAKEISPDFINVKGEVTGDIHVEITDASRQTLCNALKLQPDEDGIGATLQPA | soluble |
| MDKSKINFNYQSRAVYSANPQTSRGRLFHETMNTLRSPFQRDRDRIIHSNAFRRLKHKTQVFIADESDHYRTRLTHSIEVSQIARTLARALYLDEDLAESIALVHDFGHTPFGHAGEDALNEAMAPYGGFDHNAQALRIVTKLEQRYANFDGLNLTWETLEGLVKHNGPLLGPYAKNKDIPIDILQYNAKQDLQLNCFAGLEAQCAAIADDIAYNAHDVDDGLRSQFLTLDQFEQVSLTAALLNDIKKEHPQLDQTRRGYTLVRRQIKTMVEDVIKQSQENLARVKPKSISDVHQAEQTIVTFSPTMAVYERELKDFLFKNLYYHDQVLNRRNAAKRIVQKLFECYYENPDVMPENWHNKTAHLTNQELARLIADFLSGMTDHYALREYQHLFDCTDNFI | not soluble |
| ANIQSFSFKNFNSPSFILQGDATVSSGKLQLTKVKENGIPTPSSLGRAFYSSPIQIYDKSTGAVASWATSFTVKISAPSKASFADGIAFALVPVGSEPRRNGGYLGVFDSDVYNNSAQTVAVEFDTLSNSGWDPSMKHIGIDVNSIKSIATVSWDLANGENAEILITYNAATSLLVASLVHPSRRTSYILSERVDITNELPEYVSVGFSATTGLSEGYIETHDVLSWSFASKLPDDSTAEPLDLASYLVRNVL | soluble |
| MGLLKDLSSARDKIERIYGLNKEKLLLLAKVKEGFETSVFDFPFKNIQPDSPYFVCLDPPCKKESAYNKVIGDKNRTVYHEINKTEFENMIKLRTKRLKLLIGEVDAEVSTGDKIEFPVLANGKRRGFIYNVGGLVTDIAWLNIEENTDIGKDIQYLAVAVSQYMDEPLNEHLEMFDKEKHSSCIQIFKMNTSTLHCVKVQTIVHSFGEVWDLKWHEGCHAPHLVGCLSFVSQEGTINFLEIIDNATDVHVFKMCEKPSLTLSLADSLITTFDFLSPTTVVCGFKNGFVAEFDLTDPEVPSFYDQVHDSYILSVSTAYSDFEDTVVSTVAVDGYFYIFNPKDIATTKTTVSRFRGSNLVPVVYCPQIYSYIYSDGASSLRAVPSRAAFAVHPLVSRETTITAIGVSRLHPMVLAGSADGSLIITNAARRLLHGIKNSSATQKSLRLWKWDYSIKDDKYRIDSSYEVYPLTVNDVSKAKIDAHGINITCTKWNETSAGGKCYAFSNSAGLLTLEYLSLEHHHHHH | soluble |
| MKLSCVIVSHNMKNYIGRCIDSVRTALADIRSLVGEAEIIVVDRGSTDGTANAARTAYADVTIVDVPFDAGWATAANKGACAATGETLLFVSPEVELLSGGLPRLLEHLETNPACAIAGGAVVSTSGALLHGPARFPGLLGKLAALTGLGSRFPRTMLDWTRYGGRNLDLPLEVDSVSFDYAVVKAAAFCKLGRFDARFHTAFADTDLCRRASRTMLPRPTVAFVPQARARAQDNFVLRDEVQAFDLHGTAVVRGRVRCEMLYVWKNYCILTSLANTTLELVGQACRYAMGLLPVIGCDKTARHSAAVLKETAQAALDTQLGSQYPTTPWLEHHHHHH | not soluble |
| MSTEIKTQVVVLGAGPAGYSAAFRCADLGLETVIVERYNTLGGVCLNVGCIPSKALLHVAKVIEEAKALAEHGIVFGEPKTDIDKIRTWKEKVINQLTGGLAGMAKGRKVKVVNGLGKFTGANTLEVEGENGKTVINFDNAIIAAGSRPIQLPFIPHEDPRIWDSTDALELKEVPERLLVMGGGIIGLEMGTVYHALGSQIDVVEMFDQVIPAADKDIVKVFTKRISKKFNLMLETKVTAVEAKEDGIYVTMEGKKAPAEPQRYDAVLVAIGRVPNGKNLDAGKAGVEVDDRGFIRVDKQLRTNVPHIFAIGDIVGQPMLAHKGVHEGHVAAEVIAGKKHYFDPKVIPSIAYTEPEVAWVGLTEKEAKEKGISYETATFPWAASGRAIASDCADGMTKLIFDKESHRVIGGAIVGTNGGELLGEIGLAIEMGCDAEDIALTIHAHPTLHESVGLAAEVFEGSITDLPNPKAKKK | soluble |
| MNYKSCFDIIGPIMIGPSSSHTAGALAIGLAARKLFGGTPEKIVIKYYESFADTHKGHGTDFAIIGGILGLAADDANVTQSIELAEEQGIEIQFLEMSEESPVKHANTACVTLSDATHEIHLTGISVGGGTIEVKYIELDGFNVQLHGPLPILLVINQEEQAMQAFKDTLQKNNIQVNAVSRYVEGNQILFIFDLDSAPISSVKEQLFSLDDTSKIILL | not soluble |
| MVYVIGMGARGREGLSLKALRRLEEAEVLIGGRRHLAHFPDHPGEKVPVQGPLEALLDLAEARLKEGKKVAFLASGDPLFYGIGKRVLERFPEAEVHPAPTAFQEAFARLKLPWDQARFFSLHGRPLGGVLLELSLSPLSVVYTDPEHTPAGIARALLEMGVDARAHVAERLGEEDERVRSFAGLKEVAEERFLDPNVLILEAKGPLPPRLGFFPDEAFEQRMPKKGLITKREVRLLALGLLGLPPDGVLWDIGAGTGSVGIEAARLAPWGEVYAVEKNPESWPHIVENARRFGAFNLHLVKGEAPEALKGLPAPHAVFVGGSGGELEEILRVSLKALRPGGRLVVAAITLENLLAAYGFLKGTGLPLEGFQVQASRVVPLARYHRLEAQNPITLLAVTKEGA | soluble |
| EQQADGTWLMDGWISIRKASNLLEHDLVDEAERYSTLGGYLLWQFGYIPAAGEQITVDGLIFEIVSVNKHNIGKVRVHRTQPENE | not soluble |
| MTVQEISRVIDGKRVIVKKPELLIPAGNLEKLKVAIHYGADAVYLGGQEFGLRSNAGNFTLEEMAEGVEFAKKYGAKIYVTTNIFAHNENMDGLEEYLKGIEKAGVTGIIVADPLIIETCKRVAPSVEVHLSTQQSLSNWKAAQYWKEEGLHRLVLAREASYEEMKEIKEKVDIEIEAFVHGAMCIAYSGRCTLSNHMTARDSNRGGCCQSCRWDYDLVQTVSQHKDAKELPLFQEEDAHFAMSPKDLNLILSIPKMIEIGIDSLKVEGRMKSIHYVATVATVYRKVIDAYCADPDNFEFKQEWLDELDKCANRDTAPAFFEGVPGHQEQMFGNHSKKTTYDFAGLVLDYNEETGIVTIEQRNHFKPGHEVEFFGPEIENFTQTVEKIWDEDGNELDAARHPLQIVKFKVDQPVYVNNMMRKSILQ | not soluble |
